Data published in the nanobody polyreactivity screen of Harvey et al. (2022).

Assay: yeast display, Sf9 membrane polyspecificity reagent, FACS + sequencing; frameworks hold sequencing errors
In short: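 A nanobody's polyreactivity label depends on the gate it was sorted from. Yeast display cells were stained with 10% biotinylated, detergent-solubilized Sf9 membrane reagent for 1 hour at 4 °C, enriched on streptavidin microbeads and sorted by FACS. The low and high (top ~1%) gates were set on anti-HA fluorescence for expression and streptavidin fluorescence for reagent binding.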

| Sequence | polyreactivity (PSR sort gate) |
| --- | --- |
| QVQLVDSGGGLVQAGGSLRLSCAASGRIFSVYAMGWYRQAPGNERELVAAITRVGSTNYADSVKGRFTISRDNAKNTVYLQMNSLKPEDTAVYYCAASKYGSLSGYWGQGTQVTVSS | high polyreactivity |
| QVQLVESGGGLVQAGGSLRLSCAASGFTFYKNAMGWYRQAPGKERELVAAITSSGGSTYYADSVKGRFTISRDNAKNTVYLQMNSLKPEDTAVYYCAARASRPRFGYWGQGTQVTVSS | high polyreactivity |
| QVQLVESGGGLVQAGGSLRLSCAASGRTFDGYTMGWSRQAPGKERELVAAISRTGSTNYADSVKGRFTISRDNAKNTVYLQMNSLEPEDTAVYYCNAARRYFRYSRKTSAWYYYWGQGTQVTVSS | high polyreactivity |
| QVQLVESGGGLVQAGGSLSLSCAASGRILFRYGMGWYRQAPGKERELVARISWSGGNTHYADSVKGRFTISRDNAKNTVYLQMNSLKPEDTAVYYCNAYYTYWYPRYDYWGQGTQVTVSS | low polyreactivity |
| QVQLVESGGGLVQAGGSLRLSCAASGYTFDTNVMGWYRQEPGKERELVATITGSGGSTYYADSVKGRFTISRDNAKNTVYLEMNSLKPEDTAVYYCAAYCYRYSFHWLKRWPYDWGQGTQVTVSS | high polyreactivity |
| QVQLVESGGGLVQAGGSLRLSCAASGSTFALYTMGWYRQAPGKERELVAAIRYGGGSTYYADSVKGRFTISRDNAKNTVYLQMNSLKPEDTAVYYCARDLYNLYSGSYYWGQGTQVTVSS | low polyreactivity |
| QVQLVESGGGLVQAGGSLRLSCAASGSTFYAYAMGWYRQAPGKERELVAAISSDGTNYADSVKGRFTISRDNAKNSVNLQMNSLKPVDTAVYYCAADLLLYSSQDNDYWGQGTQVTVSS | low polyreactivity |
| QVQLVESGGCLVQAGGSLRLSCAASGSIFYWYAMGWFRQAPGKARELVAAITWSGVSTYYADSVKGRFTISRDNAKNTVDLQMNSLKREDTAVYYCAALVFGYSVFPYSYWGQGTQVTVSS | high polyreactivity |
| QVQLVESGGGLVQAGGSLRLSCAASGRTFVRYAMGWYRQAPGQERELVARITSRGTSTYYADSVKGRFTISRDNAKNTVYLQKNSLKPEDTAVYYCNKVRTFRDKSRYDYWGQGTQVTVSS | low polyreactivity |
| QVQLVESGGGLVQAGGSLRLSCAASGRIFVVNDMGWYRQAPGKERELVAAINSGGRTNYADSVKGRFTISRDNAKNTVYLQMNSLKPEDTAVYYCNAKRTGPWFLHVPVYYWGQGTQVTVSS | low polyreactivity |
| QVQLVESGGGLVQAGGSLRLSCAASGFTFGWYAMGWYRQAPGKERELVASISWSGSTTYYADSVKGRFTISRDNAKNTVYLQMNSLKPEDTAVYYCNARRSYVRNDFDYWGQGTQVTVSS | high polyreactivity |
| QVQLVESGGGLVQEGGSLRLSCAASGRNFDVYAMGWYRQAPGKERELVAAITWDGGSTYYADSVKGRFTISRDNAKNSVYLQMNSEKPEDKAVYYCAAEPVYTQRKGYDYWGQGTQVTVSS | low polyreactivity |
| QVQLVESGGGLVQAGGSLRLSCAASGGPFYTYTMGWYRQAPGKERELVAAISFSDASTYYADSVKGRFTISRDNAKNTVFLQMNSLKPEDTGVYYCNAGVLQWVYYPFDYWGQGTQVTVSS | low polyreactivity |
| QVQLVESGGGLVQAGGILRLSCASSGSICYWYAMGWYRQAPGKERELVASITGGGSKKYAESLKGRFTISRDNANNSVYLQINSLKREDTAVYYCAARYGQPWGSRYYYWGQVTQVTVSS | high polyreactivity |
| QVQLVESGGGLVQAGGSLRLSCGASGSTFYYYTMGWYRQAPGKERELVAAISFIGGSTYYADSVKGRFTISRDNAKNTVYLQMNSLKPEDTAVYYCAAEFYGLVSLSFSYDYWGQGTQVTVSS | low polyreactivity |
| QVQLVESGGGLVQAGGSLRLSCAASGRTFYLYAMGWYRQAPGKERELVAAITKSGGSTYYADSVKGRFTISRDNAKNTVYLQMNSLKPEDTAVYYCATDGRWRLAGAFTGKRRTYDYWGQGTQVTVSS | low polyreactivity |
| QVQLVESGGGLVQAGGSLRLSCAASGRTSRYAMGWSRQAPGKERELVAAITSSGGRTYYADSVKGRFTISRDNAKNTVYLQMNSLKPEDTAVYYCAAGYLLWRTWDYAAGHNYWGQGTQVTVSS | high polyreactivity |
| QVQLVESGGGLVQAGGSLRLSCAASGFTFVWYAMGWYRPAPGKERELVAAISRRGTRTYYADSVKGRFTISRDNAKNTVYLQMNSLKPEDTAVYYCAASNGYQAVTYDYWGQGTQVTVSS | high polyreactivity |
| QVQLVESGGGLVQAGGSLRLSCAASGRTFYSYAMGWYRQAPGKERELVAAISSGGTTYYADSVKGRFTISRDNAKNTVYLQMNSLKPEDTAVYYCATSRAWRYRSYYWGQGTQVTVSS | high polyreactivity |
| QVQRVESGGGLVQAGGSLLLSCAASGRTFRPYTMGWYRQAPGTERELVARITSGGSTNYADSVKGSFTISRDNAKNTVYLQMNSLKPEDTAVYYCNKPGDRHRLDEDYWGQGTQVTVSS | low polyreactivity |
| QVQLVESGGGLVQAGGSLRLSCAASGSISVVNMGWYRQAPGKERELVASITSSGSTTYADSVKGRFTISRDNAKNTVYLQMNSLKPEDTAVYYCAADVGTDYTYQHPAGAAYDYWGQGTQVTVSS | low polyreactivity |
| QVQLVESGGGLVQAGGSLRLSCAASGNIFLFYAMGWYRQAPGKERELVATLSWRGVGTYYADSVKGRFTISRDKAKNTGYIQMNSLKPEDTAVYYCAARGVWPEYDYWGQGTQVTVSS | low polyreactivity |

| Sequence | polyreactivity (PSR sort gate) |
| --- | --- |
| QVQLVESGGGLVQAGGSLSLSCAASGSTFARYAMGWYRQAPGKERELVAAISITGSTYYADSVKGRFTISRDNAKNTVYLQMKSLKPEDTAVYYCNVKSKYRYGYWGQGTQVTVSS | high polyreactivity |
| QVQLVESGGGLVQAGGSLRLSCAASGLTFSGYSMGWYRQAPGKERELVAAITSGGNTYYADSVNGRFTISRDNAKNTVYLQMNSLKPEDTAVYYCNVADWRRWGYDYWGQGTQVTVSS | low polyreactivity |
| QVQLVESGGGLVQAGGSLRLSCAASGITFGRNAMGWSRQAPGKERELVAAISRGGSTNYADSVKGRFTISRDNAKNTVYLQMTRLKPEDTAVYYCATAYRGRAWGYDYWGQGTQVTVSS | high polyreactivity |
| QVQHVESGGGLVQAGGSLRLSCAASGRIFVAYTMGWYRQAPGKERELVAGISRSGGSTYYADSVKGRFTISRDNAKNTVYLQMNNLKPEDTAVYYCAVGNWRLFPYGYWGQGTQVTVSS | high polyreactivity |
| QVQLVESGGGLVQAGGSLRLSCAASGRIFGTYGMGWYRPAPGKERELVAAISGGGSTNYADSVKGRFTISRDNAKNTVYLQMNSLKPEDTAVYYCATRWYRFYPSDYWGQGTQVTVSS | low polyreactivity |
| QVQLVESGGGLVQAGGSLRLSCAASGSTFVVNAMGCYRQAPGKERELVAAITQSGGSTFYADSVKGRFTISRDNAKNTVYLQMNSLKPEDTAVYYWGQGTQVTVSS | low polyreactivity |
| QVQLEESGGGLVQAGGSLRLSCAASGGILDTYAMGWYRPAPWKETELVAANTSGCNTNYADSVKGRFTISRDNAKNTVYLQMISLKQEDTEVYYCNLVTWYYVFRPWEYDYCGQGTQVTVSS | low polyreactivity |
| HVQLVESGGGLVQAGGSLRLSCAASGFTIQRYAMGWYRQAPGKERELVAAITSGGSTYYADSVKGRFTISRDNAMNTVYLQMNSLKPEDTAVYYCATRAVWSSWGRRYDSWGQGTQVTVSS | high polyreactivity |
| QVQLVESGGGLVQAGGSLRLSCAASGRIFHYYAMGWYRQAPGKERELVAAINKSGGRTYYADSVKGRFTISRDNAKNTVYLQMNSLKPEDTAVYYCAADVPGVTTSYAPYDSDYWGQGTQVTVSS | high polyreactivity |
| QVQLVESGGGLDQAGGSLRLSCAASGRTFQGYAMGWYRQAPGKERELVAAISRSGGRTYYADSVKGRFTISRDNAKNTVYLQMNSLKPEATAVYFCATDAFRDYGYWGQGTQVTLSS | high polyreactivity |
| QVQLVESGGGLVQAGGSLRLSCAASGSIFEPNAKGWYRQAPGKERELVAVINYSGGSTYYADSVKGRFTISRDNAKNTVYLQMNSLKPEDTAVYYCAASHYHYRYGTPQPEYNYWGQGTQVTVSS | low polyreactivity |
| QVQLVESGGGLVQAGGSLRLSCAASGYIFPGNAMGWYRQAPGKERELVAAINWSGTRTYYADSVKGRFTISRDNAKNTVYLQLNSLKPEDTAVYYCNRVWRVPIETYTRYDYWGQGTQVTVSS | high polyreactivity |
| QVQLVESGGGLVQAGGSLRLSCAASGSTFKLYVMGLYRPAPGKERELVAAIDWSGGSTYYADSVKGRFTISRDNAKNTVYLQMNSLTPEDTAVYYCAADSPNSWRMDYWGQGTQVTVSS | low polyreactivity |
| QVQLVESGGGLVQAGGSLRLSCAASGRTFQRYAMGWYRQAPGKERELVAAITSSGGTTYYADSVKGRFTISRDNAKNTVYLQMYSMKPEDTAVYYCAARRITSRYDYWGQGTQVTVSS | high polyreactivity |
| QVQLVESGGGLVQAGGSLRLSCDASGRIFRVYAMGWYRQAHGKERQLVAAIRWTGGSTYYADSVKGRFKISRDNAKNTVYLQMNSLKPEDTAVYYCAAGRYYSDGSRTIYDYWGQGTQVTVSS | low polyreactivity |
| QVQLVESGGGLVQAGGSHRLSCAASGSILWENAMGWYIQAPRKERELVATISVSGGGTYYADSVKGRFTISRDKAKNTDYLQMNSLKPEDTAVYYCNARYGYESQGWEDYWGQGTQVTVSS | low polyreactivity |
| QVQLVESGGGLVQAGGSLRLSCDASGRIFDANVMGWYRQAPGKERELVAAISSGGRTKYADSVKGRFTISRDNAKNTVYLQMNSLKPEDTAVYYCNADYRNDWGTPLWYAYNYWGQGTQVTVSS | low polyreactivity |
| QVQLVESGGGLVQAGGSLRLSCAASGRNFWVYAMGWYRQAPGKERELVAAISLSGGRTYYADSVKGRFTITRDKAKNNVNLQMNSLKPEDTAVYYCYAVYPKRGGGRIVDYWGQGTQVTVSS | high polyreactivity |
| QVQLVESGGGLVQAGGSLRLSCAASGRIFWDNAMGWYRQAPGKERELVADITWRSDSTYYADSVKGRFTISRDNAKNTVYLQMNSLKPEATAVYYCAKPINIYPYDYWGQGTQVTVSS | low polyreactivity |
| QVQLVESGGGLVQAGGSLRLSCAASGRTFVYNAMGWYRQAPGKERELVAAISSSGGSTRYADSVKGRFTISRDNAKNTVYLQMNSLKPEDTAVYYCNRLRYSNRYDTWGQGTQVTVSS | high polyreactivity |
| QVQLLESGGGLVQAGGSLRLSCAASGRIFDYYAMGWYRQAPGKERELVAAISDSGDSTYYADSVKGRFTISRDNAKNTVYLQMNRLKPVDTAVYYCAAQGGWIPAQDVRSSWGYNYWGQGTQVSVSS | high polyreactivity |
